One block for each binder: values may come before it.
Target: T1, GST-YcgR-HA fusion (wild-type YcgR of E. coli) (E. coli, UniProt P76010 1-244)
T1 sequence (looked up): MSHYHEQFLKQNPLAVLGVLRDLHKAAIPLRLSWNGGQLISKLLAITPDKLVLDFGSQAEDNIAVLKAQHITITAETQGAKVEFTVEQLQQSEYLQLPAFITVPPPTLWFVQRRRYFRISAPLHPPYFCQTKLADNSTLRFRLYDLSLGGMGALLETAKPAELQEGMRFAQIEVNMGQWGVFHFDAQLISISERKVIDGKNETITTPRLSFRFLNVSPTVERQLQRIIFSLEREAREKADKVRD
Assay: pull-down

fold increase of binding with c-di-GMP at 5 μM or higher over no added c-di-GMP: ~2 fold
B1: FliG (E. coli) (natural protein, UniProt P0ABZ1 1-331, looked up)
chain: MSNLTGTDKSVILLMTIGEDRAAEVFKHLSQREVQTLSAAMANVTQISNKQLTDVLAEFEQEAEQFAALNINANDYLRSVLVKALGEERAASLLEDILETRDTASGIETLNFMEPQSAADLIRDEHPQIIATILVHLKRAQAADILALFDERLRHDVMLRIATFGGVQPAALAELTEVLNGLLDGQNLKRSKMGGVRTAAEIINLMKTQQEEAVITAVREFDGELAQKIIDEMFLFENLVDVDDRSIQRLLQEVDSESLLIALKGAEQPLREKFLRNMSQRAADILRDDLANRGPVRLSQVENEQKAILLIVRRLAETGEMVIGSGEDTYV

fold increase of binding with c-di-GMP at 5 μM or higher over no added c-di-GMP: ~2 fold
B2: FliM (E. coli) (natural protein, UniProt P06974 1-334, looked up)
chain: MGDSILSQAEIDALLNGDSEVKDEPTASVSGESDIRPYDPNTQRRVVRERLQALEIINERFARHFRMGLFNLLRRSPDITVGAIRIQPYHEFARNLPVPTNLNLIHLKPLRGTGLVVFSPSLVFIAVDNLFGGDGRFPTKVEGREFTHTEQRVINRMLKLALEGYSDAWKAINPLEVEYVRSEMQVKFTNITTSPNDIVVNTPFHVEIGNLTGEFNICLPFSMIEPLRELLVNPPLENSRNEDQNWRDNLVRQVQHSQLELVANFADISLRLSQILKLNPGDVLPIEKPDRIIAHVDGVPVLTSQYGTLNGQYALRIEHLINPILNSLNEEQPK

From paper PMC2929022 (Molecular cell, 2010)
